# In PMC3686867, “Characterization of a Novel Putative S-Adenosylmethionine Decarboxylase-Like Protein from Leishmania donovani” (PLoS ONE, 2013):
# Experiments:
# [1] = target: T1, S-adenosylmethionine decarboxylase-like protein (ADL; putative S-adenosylmethionine decarboxylase-like proenzyme) (Leishmania donovani, UniProt E9BM59); test: tryptophan fluorescence quenching titration (saturation isotherm); supported by far-UV CD; type: binding
# T1 construct: gene LdCL_300037200; 894 bp L. donovani ADL gene in pQE30, 6×His-ADL, ~33 kDa, dimer
# T1 sequence (E9BM59 1-297): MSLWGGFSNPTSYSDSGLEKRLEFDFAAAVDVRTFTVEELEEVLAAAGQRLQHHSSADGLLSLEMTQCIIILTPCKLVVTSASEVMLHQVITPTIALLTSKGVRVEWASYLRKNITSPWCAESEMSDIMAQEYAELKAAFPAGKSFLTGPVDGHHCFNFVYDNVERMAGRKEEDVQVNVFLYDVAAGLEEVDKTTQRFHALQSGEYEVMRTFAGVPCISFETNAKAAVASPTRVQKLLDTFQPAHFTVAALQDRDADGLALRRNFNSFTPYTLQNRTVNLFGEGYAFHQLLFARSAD
# [2] = target: Leishmania donovani putative S-adenosylmethionine decarboxylase-like proenzyme (ADL) (Leishmania donovani); test: SEC; Superdex 75 10/300; ADL 1 mg/ml; 50 mM Tris-HCl pH 7.0, 50 mM NaCl, 3 mM β-me; 25°C; calibrated with low molecular weight standards; elution at 10.4 ml, ~66 kDa
# [3] = target: Leishmania donovani putative S-adenosylmethionine decarboxylase-like proenzyme (ADL) (Leishmania donovani); test: native gel or EMSA; native polyacrylamide gel electrophoresis of purified ADL
stoichiometry N [2],stoichiometry N [3],Compound,Kd [1]
,,C[S+](CC[C@H](N)C(=O)[O-])C[C@H]1O[C@@H](n2cnc3c(N)ncnc32)[C@H](O)[C@@H]1O (stereo partly drawn) [S-adenosylmethionine],51 ± 5 µM
2,2,Leishmania donovani putative S-adenosylmethionine decarboxylase-like proenzyme (ADL) (natural protein),
